Test results as given in patent US6747136 (KAROLINA INNOVATIONS, dated 2004).
Values joined by “and” are separate entries in the source; they are usually repeats but may differ in a detail not shown here. Equal values may be shown once.

What was measured:
[1] = molecular target: T1, recombinant conformational HCV E2 antigen (HCV genotype 1a) (hepatitis C virus, HCV1 (genotype 1a), UniProt P26664 383-715)
[2] = molecular target: T1, recombinant conformational HCV E2 …; assay: inhibition ELISA: coated E2 1a, soluble E2 as inhibitor
[3] = molecular target: T1, recombinant conformational HCV E2 …; remark: listed apart in the source
[4] = molecular target: T2, bovine serum albumin (bovine, UniProt P02769 25-607); assay: ELISA, […] (100 ug/ml) […]
T2 construct: also called BSA
T2 sequence (P02769 25-607 limits assumed): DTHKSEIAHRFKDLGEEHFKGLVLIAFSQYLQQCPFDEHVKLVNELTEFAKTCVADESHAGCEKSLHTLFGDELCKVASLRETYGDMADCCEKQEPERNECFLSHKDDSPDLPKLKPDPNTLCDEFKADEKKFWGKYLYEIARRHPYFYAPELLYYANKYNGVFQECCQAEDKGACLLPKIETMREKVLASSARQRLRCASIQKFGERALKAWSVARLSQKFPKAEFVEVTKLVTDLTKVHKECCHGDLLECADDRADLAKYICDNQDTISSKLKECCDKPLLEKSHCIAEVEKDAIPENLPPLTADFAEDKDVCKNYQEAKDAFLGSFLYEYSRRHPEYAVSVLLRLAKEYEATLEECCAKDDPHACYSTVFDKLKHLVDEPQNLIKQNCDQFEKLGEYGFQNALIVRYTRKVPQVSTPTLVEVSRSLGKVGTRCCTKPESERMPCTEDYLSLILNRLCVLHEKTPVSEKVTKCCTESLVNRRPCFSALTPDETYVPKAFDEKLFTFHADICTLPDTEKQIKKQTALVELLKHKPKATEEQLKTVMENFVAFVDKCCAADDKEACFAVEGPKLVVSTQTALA

[5] = molecular target: recombinant HCV E1/E2 complex antigen (hepatitis C virus, HCV1, UniProt P26664 192-383; P26664 384-746); assay: ELISA, […] (100 ug/ml) […]
recombinant HCV E1/E2 complex antigen, sequence (P26664 192-383 limits assumed, chain 1 of 2): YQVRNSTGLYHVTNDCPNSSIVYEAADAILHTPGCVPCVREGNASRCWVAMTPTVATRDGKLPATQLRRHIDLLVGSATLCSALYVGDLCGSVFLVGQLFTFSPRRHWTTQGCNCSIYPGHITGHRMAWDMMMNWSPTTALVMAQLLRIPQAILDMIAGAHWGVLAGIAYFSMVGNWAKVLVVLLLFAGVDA
recombinant HCV E1/E2 complex antigen, sequence (P26664 384-746 limits assumed, chain 2 of 2): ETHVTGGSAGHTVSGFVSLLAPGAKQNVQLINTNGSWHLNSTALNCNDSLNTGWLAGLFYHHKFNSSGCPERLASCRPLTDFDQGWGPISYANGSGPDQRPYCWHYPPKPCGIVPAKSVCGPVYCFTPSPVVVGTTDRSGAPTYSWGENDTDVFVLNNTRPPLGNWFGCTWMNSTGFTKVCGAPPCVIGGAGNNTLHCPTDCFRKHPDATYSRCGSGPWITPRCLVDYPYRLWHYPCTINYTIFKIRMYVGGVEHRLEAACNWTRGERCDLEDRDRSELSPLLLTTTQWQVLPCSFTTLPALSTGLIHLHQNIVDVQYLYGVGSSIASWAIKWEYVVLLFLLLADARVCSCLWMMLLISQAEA

[6] = molecular target: T1, recombinant conformational HCV E2 …; assay: ELISA, […] (100 ug/ml) […]
[7] = molecular target: T2, bovine serum albumin; assay: ELISA, coated BSA 5 ug/ml
[8] = molecular target: T3, HCV E2 antigen (HCV genotype 1b) (hepatitis C virus genotype 1b); assay: NOB assay: Fab pre-mixed with E2 1b, E2 binding to MOLT-4 cells by flow cytometry; 50% reduction titer, Exp. II
T3 construct: also called E2 1b; E2 antigen of genotype 1b

T1 sequence (P26664 383-715): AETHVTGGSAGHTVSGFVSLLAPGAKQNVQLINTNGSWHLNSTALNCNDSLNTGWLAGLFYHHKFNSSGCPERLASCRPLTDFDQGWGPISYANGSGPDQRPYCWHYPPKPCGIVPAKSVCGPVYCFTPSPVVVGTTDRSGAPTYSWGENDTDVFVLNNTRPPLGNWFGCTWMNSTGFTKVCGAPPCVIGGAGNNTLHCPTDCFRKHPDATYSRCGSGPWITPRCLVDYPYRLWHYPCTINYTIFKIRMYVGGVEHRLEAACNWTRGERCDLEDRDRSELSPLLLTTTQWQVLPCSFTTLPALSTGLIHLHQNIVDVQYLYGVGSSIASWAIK

B1: Fab molecule clone A12 (Fab, V domains shown)
VH: EVQLLESGSEVKKPGSSVKVSCRASGGSFRSYNFNWVRQAPGQGLEWMGGIIPMFGTANYAQKFQGRVTITADESTATGYMELSSLRSEDTAVYYCAMPYPKHCSRGSCWGWFDPWGQGTLVTVSS
VL: AELTQSPGTLSLSPGERATLSCRASQSLSSKYLAWYQQKPGQAPRLFIYDASSRATGIPDRFSGSGSGTDFTLSISRLEPEDFAVYYCQQYGTPRTFGQGTKVEIK
Kd [1]: ~100 nM
Ka [2]: ~1e+07 M⁻¹
IC50 [3]: 0.1 µg/mL

B2: Fab molecule clone L3 (Fab, V domains shown)
VH: EVQLLESGGGVVQPGRSLRLSCAASGFTFKTYGMHWVRQAPGKGLEWVAGISFDGSNQYYADSVKGRFIVSRDNSRDTVFLQMSSLRLEDTAVYYCATEGSPFGSIKGRYYLENWGQGTLVTVSS
VL: AELTQSPATLSVSPGERASLSCRASQSVGNNLAWYQQKPGQAPRLLIYGGNTRATGTPDRFSGSGSGTEFTLTISSLQSEDFAVYFCQHYSTWPLTFGGGTKVEFK
Kd [1]: ~28 nM
Ka [2]: ~4e+07 M⁻¹
OD405 nm (ELISA reactivity) [4]: 0.089 OD405 nm
OD405 nm (ELISA reactivity) [5]: 2.46 OD405 nm
OD405 nm (ELISA reactivity) [6]: 1.7 OD405 nm
binding result [7]: no binding
IC50 [3]: 0.02 µg/mL

B3: Fab molecule clone 1:5 (Fab, V domains shown)
VH: VQLLEQSGAEVRKPGSSVKVSCKASGGTFSGHVITWVRQAPGQGLEWMGESIPIFGSANYAQNYAQKFRDRVSIIADESTSTSFIELSNLRSDDTAVYYCARDPPRYCSAGRCYPGFFQQWGQGTLVTVSS
VL: AELTQSPGTLSLSPGERATLSCRASQSVSSNYLAWYQQRPGQAPRLLIYGASSRATGIPDRFSGSGSGTDFTLTISRLEPEDFAVYYCQLYGNSRWTFGQGTKVEIK
Kd [1]: > 100 nM
Ka [2]: < 1e+07 M⁻¹
binding result [7]: no binding
IC50 [3]: 1.5 µg/mL and 2.5 µg/mL

B4: Fab molecule clone 1:11 (Fab, V domains shown)
VH: VQLLEQSGAEVKKPGSSVKVSCKASGGTFSGHVISWVRQAPGQGLEWMGGSISFFGTSNSAQKFQGRVSITADESASTAYMELSSLRSEDTAIYYCAKDPPRFCSGGNCYPGFFQQWGQGTLVTVSS
VL: AELTQSPGTLSLSPGERATLSCGASQSVRSNYLAWYQQKPGQAPRLLIYGVSSRATGIPDRFSGSGSGTDFTLTISRLEPEDFAVYYCQQYGSSPRTFGQGTKLEIK
Kd [1]: ~28 nM
Ka [2]: ~4e+07 M⁻¹

B5: Fab molecule clone A8 (Fab, V domains shown)
VH: EVQLLESGPGLVKPSGTLSLTCTVSGGSIRSSHWWSWVRQPPGKGLEWIGEVFFSGSTIYNPSLNDRVFMSVDKSKDQVSLRLSSVTAADTAVYYCARSPIKMNQGRMMLDAFDIWGQGTLVIVSS
VL: AELTQSPSSLSAFVGDRVTITCRASQSISRNLNWYQQKPGTAPKVLIYAASSLQSGVPSRFSGSGSGTDFTLTITSLQPEDFATYYCQQSYTTPRTFGQGTKVEVK
Kd [1]: ~6 nM
Ka [2]: ~2e+08 M⁻¹
IC50 [3]: 0.001 µg/mL

B6: Fab molecule clone 1:7 (Fab, V domains shown)
VH: VQLLEQSGAEVKKPGSSVKVSCQVFGDTFSRYTIQWLRQAPGQGPEWMGNIIPVYNTPNYAQKFQGRLSITADDSTSTAYMELSSLRSEDTAVYFCARVVIPNAIRHTMGYYFDYWGQGTLVTVSS
VL: AELTQSPATLSLSPGERATLSCRASQSVNKYLAWYQQKPGQAPRLLIYDASNRATGIPARFSGSGSGTDFTLTISNLEPEDFAVYYCQQRSDWVTFGGGTKVEIK
Kd [1]: ~6 nM
Ka [2]: ~2e+08 M⁻¹
OD405 nm (ELISA reactivity) [4]: 0.006 OD405 nm
OD405 nm (ELISA reactivity) [5]: > 3 OD405 nm
OD405 nm (ELISA reactivity) [6]: > 3 OD405 nm
binding result [7]: no binding
IC50 [3]: 0.02 µg/mL and 0.01 µg/mL

B7: Fab molecule clone L1 (Fab, V domains shown)
VH: EVQLLESGGGVVQPGRSLRLSCAASGFTFSAYGMHWVRQAPGKGLEWVAGIWFDGSNQYYSDSVKGRFTVSRDNSRNTLFLQMNSLRPEDTAVYYCATEVLFGSIKGRYYLENWGQGTLVTVSS
VL: AELTQSPGTLSLSVGERATLSCRASQNIYSGYLGWYQQKPGQPPRLLIYGASNRATGIPDRFSGSGSGTDFTLTISRLESEDFAVYYCQQYGSPPYTFGQGTKVEIK
notes: also called Ll
Kd [1]: ~28 nM
Ka [2]: ~4e+07 M⁻¹
IC50 [8]: 0.03 µg/mL
IC50 [3]: 0.02 µg/mL and 0.03 µg/mL
